Measured values published in paper doi:10.1101/2023.10.06.561269 (bioRxiv, 2023).

B1: V. cholerae FtsE (natural protein)
chain: MIRFQQVSKAYRGGRQALQKVDFHLRRGEMAFLGGHSGAGKSTLLKLICAIERPTDGKISFNGHDITRIPNKDIPFLRRNIGIVFQDHRLLMDRSIYDNVALPMRIESISENEIKRRVSAALDKTGLLDKARCLPSQLSGGEQQRVGIARAVVNRPTLLLADEPTGNLDPELSSRVLRLFEEFNRAGVTILLATHDIHLVNSRPQYRHLELNQGFLSEVADYGR
B2: V. cholerae FtsX (natural protein)
chain: MAVKPGNQKISKTTKSTKSKPRDVKRAKTDSFLAIHFKQAKASFAALWRRPLGNILTLAVISMALALPASLYLLSKNIASVAERVAEPSQLSVYLHIDTPEPRIIVLKDDLERRDEIAKVKYISPQQGLDDLSQYAGFEQAISLLDNATLPAVLVVTPKVDSREQIQTLAKALQAEEGVTDVRMDEDWFARLDAIRHLATIVVISLSSLMLMSVFLIVGNTLRFNVQANKEEIQTMKLIGATDAYILRPYLYSGMWFGLLGAVAAWLLTALMTILLNGAVEALAQLYDSRFRLIGLGWDESLLLLMLGVFLGCVAAKVSAKRHLKEIEPV

Biological target: the molecule itself
Test: cryo-EM structure

Protein | stoichiometry N
B1 | 2
B2 | 2
